What follows are proteins tested on O=CC(O)COP(=O)(O)O (assay: coupled assay with alpha-glycerophosphate dehydrogenase, NADH consumption). Conditions: pH 7.8, 30°C, 100 mM Tris-Cl, 5 mM DTT, GAP 0-4 mM (from DL-GAP).
Format: biochemical, Arabidopsis thaliana
Description: coupled assay with alpha-glycerophosphate dehydrogenase, NADH consumption on cTPI (cytosolic triosephosphate isomerase)

Protein	Km	kcat	kcat/Km
cTPI (cytosolic triosephosphate isomerase) (Arabidopsis thaliana) (protein, tag removal not mentioned) MARKFFVGGNWKCNGTAEEVKKIVNTLNEAQVPSQDVVEVVVSPPYVFLPLVKSTLRSDFFVAAQNCWVKKGGAFTGEVSAEMLVNLDIPWVILGHSERRAILNESSEFVGDKVAYALAQGLKVIACVGETLEEREAGSTMDVVAAQTKAIADRVTNWSNVVIAYEPVWAIGTGKVASPAQAQEVHDELRKWLAKNVSADVAATTRIIYGGSVNGGNCKELGGQADVDGFLVGGASLKPEFIDIIKAAEVKKSA	1320 ± 60 µM	3410 ± 269 s⁻¹	2.58e+06 ± 321000 M⁻¹ s⁻¹
cTPI (cytosolic triosephosphate isomerase) (Arabidopsis thaliana; C218S) (protein, tag removal not mentioned) MARKFFVGGNWKCNGTAEEVKKIVNTLNEAQVPSQDVVEVVVSPPYVFLPLVKSTLRSDFFVAAQNCWVKKGGAFTGEVSAEMLVNLDIPWVILGHSERRAILNESSEFVGDKVAYALAQGLKVIACVGETLEEREAGSTMDVVAAQTKAIADRVTNWSNVVIAYEPVWAIGTGKVASPAQAQEVHDELRKWLAKNVSADVAATTRIIYGGSVNGGNSKELGGQADVDGFLVGGASLKPEFIDIIKAAEVKKSA	1680 ± 30 µM	2690 ± 73 s⁻¹	1.6e+06 ± 72000 M⁻¹ s⁻¹
cTPI (cytosolic triosephosphate isomerase) (Arabidopsis thaliana; C127S/C218S) (protein, tag removal not mentioned) MARKFFVGGNWKCNGTAEEVKKIVNTLNEAQVPSQDVVEVVVSPPYVFLPLVKSTLRSDFFVAAQNCWVKKGGAFTGEVSAEMLVNLDIPWVILGHSERRAILNESSEFVGDKVAYALAQGLKVIASVGETLEEREAGSTMDVVAAQTKAIADRVTNWSNVVIAYEPVWAIGTGKVASPAQAQEVHDELRKWLAKNVSADVAATTRIIYGGSVNGGNSKELGGQADVDGFLVGGASLKPEFIDIIKAAEVKKSA	500 ± 60 µM	14.8 ± 0.8 s⁻¹	29600 ± 5200 M⁻¹ s⁻¹
cTPI (cytosolic triosephosphate isomerase) (Arabidopsis thaliana; C127S) (protein, tag removal not mentioned) MARKFFVGGNWKCNGTAEEVKKIVNTLNEAQVPSQDVVEVVVSPPYVFLPLVKSTLRSDFFVAAQNCWVKKGGAFTGEVSAEMLVNLDIPWVILGHSERRAILNESSEFVGDKVAYALAQGLKVIASVGETLEEREAGSTMDVVAAQTKAIADRVTNWSNVVIAYEPVWAIGTGKVASPAQAQEVHDELRKWLAKNVSADVAATTRIIYGGSVNGGNCKELGGQADVDGFLVGGASLKPEFIDIIKAAEVKKSA	480 ± 40 µM	70.4 ± 7.4 s⁻¹	147000 ± 28000 M⁻¹ s⁻¹

Source: PMC5177656, “Cytosolic Triosephosphate Isomerase from Arabidopsis thaliana Is Reversibly Modified by Glutathione on Cysteines 127 and 218” (Frontiers in Plant Science, 2016)
